# Assay results published in PMC9076272 (RSC Advances, 2019).
# Target: the molecule itself
# Experiment: crystal structure
protein,measurement,value
"Pseudomonas aeruginosa single-stranded DNA-binding protein (PaSSB) (natural protein, UniProt P40947 1-165, looked up) MARGVNKVILVGNVGGDPETRYMPNGNAVTNITLATSESWKDKQTGQQQERTEWHRVVFFGRLAEIAGEYLRKGSQVYVEGSLRTRKWQGQDGQDRYTTEIVVDINGNMQLLGGRPSGDDSQRAPREPMQRPQQAPQQQSRPAPQQQPAPQPAQDYDSFDDDIPF",stoichiometry N,4
